Among the data in paper PMC4606454 are FRET-AB and initial velocity of KYP transmethylation of histone 3 (in vitro HMTase reconstitution with 14C-SAM; His-MBP-TrAP pre-incubated with His-GST-KYP values, retold here.

For one assay, the target named is YFP-KYP (Arabidopsis) (UniProt Q8GZB6). Nature of the assay: FRET or BRET; FRET acceptor photobleaching (FRET-AB) in nuclei of N. benthamiana epidermal cells; TrAP-CFP donor, YFP-KYP acceptor; 27-30 cells per experiment.
In assay [1] the target is His-MBP-KYP (Arabidopsis) (UniProt Q8GZB6).

The substance CaLCuV TrAP-CFP (natural protein) gave an FRET-AB in the assay with YFP-KYP (Arabidopsis) of 2.7.

In the case of His-GST-CaLCuV-TrAP (natural protein), in assay [1], the initial velocity of KYP transmethylation of histone 3 (in vitro HMTase reconstitution with 14C-SAM; His-MBP-TrAP pre-incubated with His-GST-KYP at molar ratios 0-10); IC50 as TrAP:KYP molar ratio (TrAP:KYP molar ratio) was determined as 2.

For His-GST-TGMV-TrAP (natural protein), the initial velocity of KYP transmethylation of histone 3 (in vitro HMTase reconstitution with 14C-SAM; His-MBP-TrAP pre-incubated with His-GST-KYP at molar ratios 0-10); IC50 as TrAP:KYP molar ratio (TrAP:KYP molar ratio) in assay [1] is 2.

Substance TGMV TrAP-CFP (natural protein) displayed an FRET-AB in the assay with YFP-KYP (Arabidopsis) of 3.82.
